{"source": "patent US20170267768A1", "about": "(University of California, published 2017)", "binders": {"B1": {"name": "scFv TS1 (scFv)", "scFv": "QVQLVQSGGGLVQPGGSLRLSCAASGFTFSSYAMHWVRQAPGKGLEWVAVISYDGSNKYYADSVKGRFTISRDNSKNTLYLQMNSLRAEDTAVYYCARASVGATGPFDIWGQGTLVTVSSASTGGGGSGGGGSGGGGSGGGGSSSELTQPPSVSVAPGQTVTITCQGDSLRSYYASWYQQKPGTAPKLLIYGENNRPSGVPDRFSGSSSGTSASLTITGAQAEDEADYYCNSRDSSGTHLTVFGGGTKLTVLG"}}, "key": {"[1]": {"molecular_target": "T1, murine EphA2 on CT-26 cells (mouse, UniProt Q03145 26-977)", "T1 construct": "whole, on cells", "T1 sequence (Q03145 26-977)": "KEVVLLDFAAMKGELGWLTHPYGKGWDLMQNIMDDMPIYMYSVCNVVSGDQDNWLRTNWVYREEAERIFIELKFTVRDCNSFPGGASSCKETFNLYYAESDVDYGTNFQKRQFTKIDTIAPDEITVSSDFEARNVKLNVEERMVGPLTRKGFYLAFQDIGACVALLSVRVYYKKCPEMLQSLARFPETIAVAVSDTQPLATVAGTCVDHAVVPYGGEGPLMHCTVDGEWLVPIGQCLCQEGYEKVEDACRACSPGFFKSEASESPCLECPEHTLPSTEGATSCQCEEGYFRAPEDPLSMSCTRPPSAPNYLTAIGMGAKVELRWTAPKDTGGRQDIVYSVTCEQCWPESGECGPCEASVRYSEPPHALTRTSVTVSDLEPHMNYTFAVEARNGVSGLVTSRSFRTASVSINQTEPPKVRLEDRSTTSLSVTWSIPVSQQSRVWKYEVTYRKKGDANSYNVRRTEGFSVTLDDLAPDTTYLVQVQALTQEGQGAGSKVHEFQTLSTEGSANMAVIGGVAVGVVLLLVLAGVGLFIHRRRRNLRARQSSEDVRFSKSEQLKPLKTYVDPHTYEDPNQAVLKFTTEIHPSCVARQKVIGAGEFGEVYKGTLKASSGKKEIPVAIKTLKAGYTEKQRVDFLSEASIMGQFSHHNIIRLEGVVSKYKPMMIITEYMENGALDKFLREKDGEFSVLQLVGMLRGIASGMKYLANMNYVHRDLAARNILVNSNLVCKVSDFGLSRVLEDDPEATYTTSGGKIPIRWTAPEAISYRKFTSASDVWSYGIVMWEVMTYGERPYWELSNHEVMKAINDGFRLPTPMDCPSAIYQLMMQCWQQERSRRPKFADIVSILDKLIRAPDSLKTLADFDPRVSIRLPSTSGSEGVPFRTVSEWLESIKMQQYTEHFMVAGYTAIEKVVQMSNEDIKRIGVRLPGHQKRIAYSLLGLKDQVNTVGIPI", "experiment": "CLIA: scFv-decorated fluorescent NTA(Ni) liposomes on CT-26 cells, FACS", "protocol": "The concentration of liposomal phospholipid was then determined after acid digestion using spectrophotometric phosphomolybdate method. Prior to incubation with cells the liposomes were diluted to 0.4 mM phospholipid in Hank's Balanced Salt Solution (HBSS), and NiSO₄ was added to 0.1 mM. The hexahistidine scFvs were diluted into cell culture medium (see below) to the concentration of 25 μg/mL of scFv and mixed with equal volume of the liposome solution (“fluorescent NTA-liposome/scFv mixture”).\nBy measuring fluorescence of the cells prior to and after incubation/wash with imidazole, which disrupts His6/Ni complexes and thereby releases and removes external (but not internalized) histidine-tagged scFv, the percentage of Ab internalized is quantitated. The test cells (human cancer cell lines OVCAR-3 and U-251 and the murine cancer cell line CT-26) were grown in the adherent state in […] cell culture medium supplemented with 10% FBS, 1× penicillin/streptomycin, and L-glutamine, to 90% confluence and harvested using 0.25% trypsin-EDTA. […] The relative amounts of cell-associated liposomes were evaluated by FACS (Cy5 fluorescence channel). The “binding” amount included both cell surface-bound and internalized liposomes and was proportional to cell fluorescence without imidazole wash. […]"}, "[2]": {"molecular_target": "T2, human EphA2 on OVCAR-3 and U-251 cells (human, UniProt P29317 24-976)", "T2 construct": "whole, on cells; also called EphA2 receptors", "T2 sequence (P29317 24-976)": "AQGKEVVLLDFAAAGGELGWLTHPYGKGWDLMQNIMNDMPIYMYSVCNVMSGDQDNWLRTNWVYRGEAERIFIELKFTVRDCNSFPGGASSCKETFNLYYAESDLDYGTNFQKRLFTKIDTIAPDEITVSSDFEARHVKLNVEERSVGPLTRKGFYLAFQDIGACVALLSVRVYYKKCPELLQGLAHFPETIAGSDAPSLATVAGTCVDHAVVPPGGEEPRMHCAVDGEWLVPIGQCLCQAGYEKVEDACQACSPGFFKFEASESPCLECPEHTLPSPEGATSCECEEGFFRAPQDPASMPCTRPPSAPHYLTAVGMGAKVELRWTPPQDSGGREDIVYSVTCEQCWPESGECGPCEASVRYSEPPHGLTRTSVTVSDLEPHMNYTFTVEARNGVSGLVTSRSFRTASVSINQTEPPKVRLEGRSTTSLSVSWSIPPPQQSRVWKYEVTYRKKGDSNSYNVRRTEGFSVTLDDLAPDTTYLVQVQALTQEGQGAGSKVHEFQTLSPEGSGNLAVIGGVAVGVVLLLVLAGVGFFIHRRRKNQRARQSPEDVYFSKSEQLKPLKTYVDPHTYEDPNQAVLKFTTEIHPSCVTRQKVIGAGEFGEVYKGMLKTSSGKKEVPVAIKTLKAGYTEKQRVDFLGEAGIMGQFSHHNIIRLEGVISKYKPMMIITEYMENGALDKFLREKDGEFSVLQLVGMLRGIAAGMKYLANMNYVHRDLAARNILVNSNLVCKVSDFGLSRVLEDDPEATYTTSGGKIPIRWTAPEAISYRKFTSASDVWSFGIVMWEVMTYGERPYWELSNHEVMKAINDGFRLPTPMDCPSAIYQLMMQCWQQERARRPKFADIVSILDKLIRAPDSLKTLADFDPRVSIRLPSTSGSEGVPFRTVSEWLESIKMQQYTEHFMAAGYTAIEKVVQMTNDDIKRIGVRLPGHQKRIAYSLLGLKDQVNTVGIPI", "experiment": "CLIA: scFv-decorated fluorescent NTA(Ni) liposomes on OVCAR-3 and U-251 cells, FACS", "protocol": "To test the anti-EphA2 activity of these variant scFvs, the binding and internalization of liposomes externally decorated with these Abs was assayed on cell lines expressing EphA2. A rapid high-throughput Chelated Ligand-induced Internalization Assay (CLIA) (Nielsen et al., BMC immunology, 2006, 7:24) was used to screen anti-EphA2-scFv-targeted liposomes for binding and internalization assessment. Two cell lines that express high levels of EphA2 receptors, OVCAR-3 and U-251, were tested, as well as a murine EphA2-expressing mouse cell line, CT-26 (to test whether cross-reactivity to murine EphA2 was retained by the engineered scFvs). Via nickel-binding by each scFv's c-terminal His6 tag, the scFvs were bound to fluorescently labeled liposomes comprising an NTA(Ni) conjugated lipid (Dil5-NTA liposomes).\nDil5-NTA liposomes were prepared as follows. The NTA conjugated lipid, DOD-Tri-NTA, was synthesized as described in Huang et al., Bioconjugate chemistry, 2006, vol. 17, p. 1592-1600. […] The concentration of liposomal phospholipid was then determined after acid digestion using spectrophotometric phosphomolybdate method."}}}
{"binder": "B1", "values": [{"measurement": "binding result", "setting": "[1]", "result": "binds"}, {"measurement": "binding result", "setting": "[2]", "result": "binds"}]}
